{"source": "patent US20140087995A1", "about": "(published 2014)", "note": "Numbered stars: 1 amine (or outer) side, 2 acyl side, 3 side chain; on linkers, the order of the positions; unused ones are H or OH. Bridge positions count the residues as written; N and C are the ends. Side chains are listed from the residue outwards. Ends that are not written are not given here. * marks the point of attachment. C20 diacid = O=C(O)CCCCCCCCCCCCCCCCCCC(=O)*; γGlu = O=C(O)[C@H](CCC(=O)[*:2])N[*:1]; AEEA = NCCOCCOCC(=O)O", "data": [{"target": "T1, human calcitonin receptor (human, UniProt P30988 25-474)", "T1 sequence (looked up)": "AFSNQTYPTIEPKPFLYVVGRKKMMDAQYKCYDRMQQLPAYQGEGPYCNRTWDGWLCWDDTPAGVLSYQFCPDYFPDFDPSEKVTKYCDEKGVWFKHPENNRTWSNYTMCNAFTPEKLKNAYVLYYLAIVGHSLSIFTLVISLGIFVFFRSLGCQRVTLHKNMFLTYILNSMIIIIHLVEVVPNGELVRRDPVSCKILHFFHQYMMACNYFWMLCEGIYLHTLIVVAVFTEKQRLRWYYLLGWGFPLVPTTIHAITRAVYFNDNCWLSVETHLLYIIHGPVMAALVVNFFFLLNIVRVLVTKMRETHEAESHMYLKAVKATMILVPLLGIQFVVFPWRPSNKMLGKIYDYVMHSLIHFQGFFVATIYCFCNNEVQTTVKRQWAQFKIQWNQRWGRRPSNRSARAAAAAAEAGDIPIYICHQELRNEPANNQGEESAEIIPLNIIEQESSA", "experiment": "cell-based or functional assay", "units": {"hCTR funct. EC50": "pM"}, "values": [{"binder": "K([γGlu-γGlu-C20 diacid])CNTATCATQRLAHFLRHSSPNFGAIPSSTNVGSNTY-NH2 (disulfide 2-7; N-terminus assumed; SMILES CC[C@H](C)[C@H](NC(=O)[C@H](C)NC(=O)CNC(=O)[C@H](Cc1ccccc1)NC(=O)[C@H](CC(N)=O)NC(=O)[C@@H]1CCCN1C(=O)[C@H](CO)NC(=O)[C@H](CO)NC(=O)[C@H](Cc1c[nH]cn1)NC(=O)[C@H](CCCNC(=N)N)NC(=O)[C@H](CC(C)C)NC(=O)[C@H](Cc1ccccc1)NC(=O)[C@H](Cc1c[nH]cn1)NC(=O)[C@H](C)NC(=O)[C@H](CC(C)C)NC(=O)[C@H](CCCNC(=N)N)NC(=O)[C@H](CCC(N)=O)NC(=O)[C@@H](NC(=O)[C@H](C)NC(=O)[C@@H]1CSSC[C@H](NC(=O)[C@@H](N)CCCCNC(=O)CC[C@H](NC(=O)CC[C@H](NC(=O)CCCCCCCCCCCCCCCCCCC(=O)O)C(=O)O)C(=O)O)C(=O)N[C@@H](CC(N)=O)C(=O)N[C@@H]([C@@H](C)O)C(=O)N[C@@H](C)C(=O)N[C@@H]([C@@H](C)O)C(=O)N1)[C@@H](C)O)C(=O)N1CCC[C@H]1C(=O)N[C@@H](CO)C(=O)N[C@@H](CO)C(=O)N[C@H](C(=O)N[C@@H](CC(N)=O)C(=O)N[C@H](C(=O)NCC(=O)N[C@@H](CO)C(=O)N[C@@H](CC(N)=O)C(=O)N[C@H](C(=O)N[C@@H](Cc1ccc(O)cc1)C(N)=O)[C@@H](C)O)C(C)C)[C@@H](C)O, also called compound 92)", "hCTR funct. EC50": 2380}, {"binder": "K([γGlu-γGlu-C20 diacid])CNTATCATQRLAEFLRHSSPNFGAIPSSTNVGSRTY-NH2 (disulfide 2-7; N-terminus assumed; SMILES CC[C@H](C)[C@H](NC(=O)[C@H](C)NC(=O)CNC(=O)[C@H](Cc1ccccc1)NC(=O)[C@H](CC(N)=O)NC(=O)[C@@H]1CCCN1C(=O)[C@H](CO)NC(=O)[C@H](CO)NC(=O)[C@H](Cc1c[nH]cn1)NC(=O)[C@H](CCCNC(=N)N)NC(=O)[C@H](CC(C)C)NC(=O)[C@H](Cc1ccccc1)NC(=O)[C@H](CCC(=O)O)NC(=O)[C@H](C)NC(=O)[C@H](CC(C)C)NC(=O)[C@H](CCCNC(=N)N)NC(=O)[C@H](CCC(N)=O)NC(=O)[C@@H](NC(=O)[C@H](C)NC(=O)[C@@H]1CSSC[C@H](NC(=O)[C@@H](N)CCCCNC(=O)CC[C@H](NC(=O)CC[C@H](NC(=O)CCCCCCCCCCCCCCCCCCC(=O)O)C(=O)O)C(=O)O)C(=O)N[C@@H](CC(N)=O)C(=O)N[C@@H]([C@@H](C)O)C(=O)N[C@@H](C)C(=O)N[C@@H]([C@@H](C)O)C(=O)N1)[C@@H](C)O)C(=O)N1CCC[C@H]1C(=O)N[C@@H](CO)C(=O)N[C@@H](CO)C(=O)N[C@H](C(=O)N[C@@H](CC(N)=O)C(=O)N[C@H](C(=O)NCC(=O)N[C@@H](CO)C(=O)N[C@@H](CCCNC(=N)N)C(=O)N[C@H](C(=O)N[C@@H](Cc1ccc(O)cc1)C(N)=O)[C@@H](C)O)C(C)C)[C@@H](C)O, also called compound 89)", "hCTR funct. EC50": 11200}, {"binder": "K([γGlu-C20 diacid])CNTATCATQRLAHFLRHSSPNFGAIPSSTNVGPNTY-NH2 (disulfide 2-7; N-terminus assumed; SMILES CC[C@H](C)[C@H](NC(=O)[C@H](C)NC(=O)CNC(=O)[C@H](Cc1ccccc1)NC(=O)[C@H](CC(N)=O)NC(=O)[C@@H]1CCCN1C(=O)[C@H](CO)NC(=O)[C@H](CO)NC(=O)[C@H](Cc1c[nH]cn1)NC(=O)[C@H](CCCNC(=N)N)NC(=O)[C@H](CC(C)C)NC(=O)[C@H](Cc1ccccc1)NC(=O)[C@H](Cc1c[nH]cn1)NC(=O)[C@H](C)NC(=O)[C@H](CC(C)C)NC(=O)[C@H](CCCNC(=N)N)NC(=O)[C@H](CCC(N)=O)NC(=O)[C@@H](NC(=O)[C@H](C)NC(=O)[C@@H]1CSSC[C@H](NC(=O)[C@@H](N)CCCCNC(=O)CC[C@H](NC(=O)CCCCCCCCCCCCCCCCCCC(=O)O)C(=O)O)C(=O)N[C@@H](CC(N)=O)C(=O)N[C@@H]([C@@H](C)O)C(=O)N[C@@H](C)C(=O)N[C@@H]([C@@H](C)O)C(=O)N1)[C@@H](C)O)C(=O)N1CCC[C@H]1C(=O)N[C@@H](CO)C(=O)N[C@@H](CO)C(=O)N[C@H](C(=O)N[C@@H](CC(N)=O)C(=O)N[C@H](C(=O)NCC(=O)N1CCC[C@H]1C(=O)N[C@@H](CC(N)=O)C(=O)N[C@H](C(=O)N[C@@H](Cc1ccc(O)cc1)C(N)=O)[C@@H](C)O)C(C)C)[C@@H](C)O, also called compound 67)", "hCTR funct. EC50": 354}, {"binder": "{C20 diacid-γGlu}-GRCNTATCATQRLAHFLRHSSPNFGAIPSSTNVGSNTY-NH2 (disulfide 3-8; SMILES CC[C@H](C)[C@H](NC(=O)[C@H](C)NC(=O)CNC(=O)[C@H](Cc1ccccc1)NC(=O)[C@H](CC(N)=O)NC(=O)[C@@H]1CCCN1C(=O)[C@H](CO)NC(=O)[C@H](CO)NC(=O)[C@H](Cc1c[nH]cn1)NC(=O)[C@H](CCCNC(=N)N)NC(=O)[C@H](CC(C)C)NC(=O)[C@H](Cc1ccccc1)NC(=O)[C@H](Cc1c[nH]cn1)NC(=O)[C@H](C)NC(=O)[C@H](CC(C)C)NC(=O)[C@H](CCCNC(=N)N)NC(=O)[C@H](CCC(N)=O)NC(=O)[C@@H](NC(=O)[C@H](C)NC(=O)[C@@H]1CSSC[C@H](NC(=O)[C@H](CCCNC(=N)N)NC(=O)CNC(=O)CC[C@H](NC(=O)CCCCCCCCCCCCCCCCCCC(=O)O)C(=O)O)C(=O)N[C@@H](CC(N)=O)C(=O)N[C@@H]([C@@H](C)O)C(=O)N[C@@H](C)C(=O)N[C@@H]([C@@H](C)O)C(=O)N1)[C@@H](C)O)C(=O)N1CCC[C@H]1C(=O)N[C@@H](CO)C(=O)N[C@@H](CO)C(=O)N[C@H](C(=O)N[C@@H](CC(N)=O)C(=O)N[C@H](C(=O)NCC(=O)N[C@@H](CO)C(=O)N[C@@H](CC(N)=O)C(=O)N[C@H](C(=O)N[C@@H](Cc1ccc(O)cc1)C(N)=O)[C@@H](C)O)C(C)C)[C@@H](C)O, also called compound 99)", "hCTR funct. EC50": 818}, {"binder": "K([AEEA-C20 diacid])CNTATCATQRLAHFLRHSSPNFGAIPSSTNVGSNTY-NH2 (disulfide 2-7; N-terminus assumed; SMILES CC[C@H](C)[C@H](NC(=O)[C@H](C)NC(=O)CNC(=O)[C@H](Cc1ccccc1)NC(=O)[C@H](CC(N)=O)NC(=O)[C@@H]1CCCN1C(=O)[C@H](CO)NC(=O)[C@H](CO)NC(=O)[C@H](Cc1c[nH]cn1)NC(=O)[C@H](CCCNC(=N)N)NC(=O)[C@H](CC(C)C)NC(=O)[C@H](Cc1ccccc1)NC(=O)[C@H](Cc1c[nH]cn1)NC(=O)[C@H](C)NC(=O)[C@H](CC(C)C)NC(=O)[C@H](CCCNC(=N)N)NC(=O)[C@H](CCC(N)=O)NC(=O)[C@@H](NC(=O)[C@H](C)NC(=O)[C@@H]1CSSC[C@H](NC(=O)[C@@H](N)CCCCNC(=O)COCCOCCNC(=O)CCCCCCCCCCCCCCCCCCC(=O)O)C(=O)N[C@@H](CC(N)=O)C(=O)N[C@@H]([C@@H](C)O)C(=O)N[C@@H](C)C(=O)N[C@@H]([C@@H](C)O)C(=O)N1)[C@@H](C)O)C(=O)N1CCC[C@H]1C(=O)N[C@@H](CO)C(=O)N[C@@H](CO)C(=O)N[C@H](C(=O)N[C@@H](CC(N)=O)C(=O)N[C@H](C(=O)NCC(=O)N[C@@H](CO)C(=O)N[C@@H](CC(N)=O)C(=O)N[C@H](C(=O)N[C@@H](Cc1ccc(O)cc1)C(N)=O)[C@@H](C)O)C(C)C)[C@@H](C)O, also called compound 90)", "note": "[N^ε1-[2-[2-[2-(19-carboxynonadecanoylamino)ethoxy]ethoxy]acetyl]-[His14,Arg17,Pro21,Pro27]-h-amylin]", "hCTR funct. EC50": 236}, {"binder": "K([γGlu-C20 diacid])CNTATCATQRLAHFLRHSSPNFGAIPSSTNVGSNTY-NH2 (disulfide 2-7; N-terminus assumed; SMILES CC[C@H](C)[C@H](NC(=O)[C@H](C)NC(=O)CNC(=O)[C@H](Cc1ccccc1)NC(=O)[C@H](CC(N)=O)NC(=O)[C@@H]1CCCN1C(=O)[C@H](CO)NC(=O)[C@H](CO)NC(=O)[C@H](Cc1c[nH]cn1)NC(=O)[C@H](CCCNC(=N)N)NC(=O)[C@H](CC(C)C)NC(=O)[C@H](Cc1ccccc1)NC(=O)[C@H](Cc1c[nH]cn1)NC(=O)[C@H](C)NC(=O)[C@H](CC(C)C)NC(=O)[C@H](CCCNC(=N)N)NC(=O)[C@H](CCC(N)=O)NC(=O)[C@@H](NC(=O)[C@H](C)NC(=O)[C@@H]1CSSC[C@H](NC(=O)[C@@H](N)CCCCNC(=O)CC[C@H](NC(=O)CCCCCCCCCCCCCCCCCCC(=O)O)C(=O)O)C(=O)N[C@@H](CC(N)=O)C(=O)N[C@@H]([C@@H](C)O)C(=O)N[C@@H](C)C(=O)N[C@@H]([C@@H](C)O)C(=O)N1)[C@@H](C)O)C(=O)N1CCC[C@H]1C(=O)N[C@@H](CO)C(=O)N[C@@H](CO)C(=O)N[C@H](C(=O)N[C@@H](CC(N)=O)C(=O)N[C@H](C(=O)NCC(=O)N[C@@H](CO)C(=O)N[C@@H](CC(N)=O)C(=O)N[C@H](C(=O)N[C@@H](Cc1ccc(O)cc1)C(N)=O)[C@@H](C)O)C(C)C)[C@@H](C)O, also called compound 70)", "note": "[N^ε1-[(4S)-4-carboxy-4-(19-carboxynonadecanoylamino)butanoyl]-[His14,Arg17,Pro21,Pro27]-h-amylin]", "hCTR funct. EC50": 715}]}]}
